Assay results from patent US20110262436A1, “TREATMENT METHOD” (Genentech, Inc., priority 2008, published 2011).
“Also recorded” adds a separate entry of the source.

What was measured:
[1] = target: c-met (Rattus norvegicus, UniProt P97523); assay: Binding to c-met in rats
[2] = tested on: c-met; assay: Binding to c-met in cynomolgus monkeys
[3] = Phase I dose-escalation study: safety and tolerability; format: in vivo, humans
Experimental: Study design. There are two stages to this study, a dose-escalation stage and an expansion stage.
Study treatment. […] Dose levels tested in Phase I were: 1 mg/kg, 4 mg/kg, 10 mg/kg, 20 mg/kg, and 30 mg/kg.

[4] = PK study, single IV dose in cynomolgus monkeys; format: in vivo
Experimental: PK studies. PK studies were conducted in mice, rats, and cynomolgus monkeys.
Pharmacokinetic Assay for MetMAb in Cynomolgus Monkey Serum. A direct ELISA was developed to quantitate MetMAb in cynomolgus monkey serum. Plates were coated with a His-tagged c-met extracellular domain fragment, and diluted samples, standards, and controls were added to the coated plates. F(Ab′)2 fragmented, goat anti-human IgG Fc antibodies conjugated to HRP were added for detection. TMB peroxidase was stopped with […]. The plates were read at an absorbance of 450 nm and 620/630 nm.
The lower limit of quantification of the assay was 1.0 ng/ml and the upper limit of quantification was 32.0 ng/ml. The minimum dilution for neat cynomolgus monkey serum samples was 1/50, resulting in a minimum quantifiable concentration of 50 ng/ml, with an indefinite upper limit.
Mouse, Rat, and Cynomolgus Monkey PK data analysis. […] PK parameters were estimated using WinNonlin Enterprise Version 5.0.1 (Pharsight Corp., Mountain View, Calif.). The nominal dose administered for each group was used for modeling. Since a single concentration-time profile for mice was determined for each group, one estimate of each PK parameter was obtained and is reported, along with the standard error (SE) of the fit of each PK parameter. For rats and monkeys, PK parameters are reported as mean (+/−SD).
For IV administrations, a two-compartment elimination model with IV bolus input and first-order elimination was used to describe the observed data (WinNonlin Model 7). Concentrations were weighted using iterative reweighting (1/ŷ^2) and the Nelder-Mead minimization algorithm. The following equation was used to calculate concentration over time in Model 7: […]

[5] = tested on: IL-8; assay: Phase I study: serum IL-8 levels by electrochemiluminescence; format: in vivo, humans
Experimental: (§1) Pre- and post-dose serum is collected for evaluation of pharmacodynamic (PD) biomarkers that could be affected by inhibition of Met signaling. In addition, archival tissue is obtained for exploratory diagnostic assessments.
Serum IL-8 levels (diluted 1:5) were determined using an electrochemiluminescence based method as directed by the manufacturer (Meso Scale Discovery, Gaithersburg Md.; Cat. No. K111ANC).

[6] = tested on: locally advanced or metastatic solid tumors; assay: Phase I study: anti-tumor activity (RECIST); format: in vivo, humans
Experimental: The following activity outcome measures are assessed: objective response, defined as a complete or partial response confirmed≧4 weeks after initial documentation; duration of objective response; and progression-free survival. Objective response and disease progression will be determined using RECIST.
Patient selection criteria.

[7] = tested on: HGF; assay: Phase I study: serum HGF levels by ELISA; format: in vivo, humans
Experimental: as §1
Serum HGF levels were determined using ELISA. […] For patient 12007, HGF expression increased to baseline levels in subsequent cycles. For patient 11009, HGF levels decreased by 70% post drug treatment and remained low for the duration of the study.

Sequence of c-met (Rattus norvegicus, UniProt P97523) (P97523 25-1382): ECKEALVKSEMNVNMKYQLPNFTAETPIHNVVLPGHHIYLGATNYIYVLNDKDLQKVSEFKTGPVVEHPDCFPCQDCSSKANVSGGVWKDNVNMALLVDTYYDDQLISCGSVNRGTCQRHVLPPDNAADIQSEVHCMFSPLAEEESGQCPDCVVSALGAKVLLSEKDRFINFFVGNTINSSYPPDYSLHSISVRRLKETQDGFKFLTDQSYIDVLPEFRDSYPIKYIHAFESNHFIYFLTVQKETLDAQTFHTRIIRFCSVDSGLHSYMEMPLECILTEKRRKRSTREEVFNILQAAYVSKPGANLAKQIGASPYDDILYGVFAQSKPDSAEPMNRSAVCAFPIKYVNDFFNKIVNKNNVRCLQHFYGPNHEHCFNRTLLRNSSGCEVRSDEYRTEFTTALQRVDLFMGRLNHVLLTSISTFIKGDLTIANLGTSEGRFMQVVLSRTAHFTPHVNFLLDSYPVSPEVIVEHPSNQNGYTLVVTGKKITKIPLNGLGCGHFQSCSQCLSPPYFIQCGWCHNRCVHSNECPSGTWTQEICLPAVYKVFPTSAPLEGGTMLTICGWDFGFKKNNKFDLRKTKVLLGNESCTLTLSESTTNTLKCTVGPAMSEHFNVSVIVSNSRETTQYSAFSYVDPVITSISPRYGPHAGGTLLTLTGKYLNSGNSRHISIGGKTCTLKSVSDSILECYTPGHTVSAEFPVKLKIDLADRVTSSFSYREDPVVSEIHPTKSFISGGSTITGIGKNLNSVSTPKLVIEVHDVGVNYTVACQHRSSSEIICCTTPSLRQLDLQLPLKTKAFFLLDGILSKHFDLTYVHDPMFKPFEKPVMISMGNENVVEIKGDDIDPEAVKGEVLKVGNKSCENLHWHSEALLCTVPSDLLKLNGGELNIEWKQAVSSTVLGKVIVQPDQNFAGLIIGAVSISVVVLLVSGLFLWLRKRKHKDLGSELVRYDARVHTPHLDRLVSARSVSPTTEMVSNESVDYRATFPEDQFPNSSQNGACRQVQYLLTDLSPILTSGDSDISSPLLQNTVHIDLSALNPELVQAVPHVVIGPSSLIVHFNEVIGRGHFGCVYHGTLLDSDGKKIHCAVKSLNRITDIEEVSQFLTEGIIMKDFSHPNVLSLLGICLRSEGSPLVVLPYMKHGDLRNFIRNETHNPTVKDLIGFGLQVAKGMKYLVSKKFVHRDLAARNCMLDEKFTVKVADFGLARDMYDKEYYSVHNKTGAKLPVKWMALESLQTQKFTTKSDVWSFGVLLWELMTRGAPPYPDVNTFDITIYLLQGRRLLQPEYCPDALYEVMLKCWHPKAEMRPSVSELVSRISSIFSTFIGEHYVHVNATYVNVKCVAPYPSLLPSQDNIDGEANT

For “MetMAb: recombinant, humanized, monovalent (one-armed) monoclonal antibody directed against human c-met”, the Binding to c-met [1] was “does not bind to c-met”, the Binding to c-met [2] was “binds to c-met” and the “Abdominal pain, drug-related, Grade 1 or 2 (patients)” value ([3]; Total (n = 21)) was 0. For the same substance, the “Abdominal pain, drug-related, Grade 3 (patients)” value ([3]; Total (n = 21)) was 1 (4.8%), the “Anorexia, drug-related, Grade 1 or 2 (patients)” value ([3]; Total (n = 21)) was 2 and the “Anorexia, drug-related, Grade 3 (patients)” value ([3]; Total (n = 21)) was 0. The “Any adverse event, drug-related, Grade 3 (patients)” value ([3]; Total (n = 21)) was 2 (9.5%), the “Diarrhoea, drug-related, Grade 1 or 2 (patients)” value ([3]; Total (n = 21)) was 1 and the “Diarrhoea, drug-related, Grade 3 (patients)” value ([3]; Total (n = 21)) was 0. For the same substance, the “Dysgeusia, drug-related, Grade 1 or 2 (patients)” value ([3]; Total (n = 21)) was 1, the “Dysgeusia, drug-related, Grade 3 (patients)” value ([3]; Total (n = 21)) was 0 and the “Fatigue, drug-related, Grade 1 or 2 (patients)” value ([3]; Total (n = 21)) was 7. For the same substance, the “Fatigue, drug-related, Grade 3 (patients)” value ([3]; Total (n = 21)) was 0, the “Flushing, drug-related, Grade 1 or 2 (patients)” value ([3]; Total (n = 21)) was 1 and the “Flushing, drug-related, Grade 3 (patients)” value ([3]; Total (n = 21)) was 0. For the same substance, the “Gastroesophageal reflux disease (GERD), drug-related, Grade 1 or 2 (patients)” value ([3]; Total (n = 21)) was 1, the “Gastroesophageal reflux disease (GERD), drug-related, Grade 3 (patients)” value ([3]; Total (n = 21)) was 0 and the “Hypoalbuminaemia, drug-related, Grade 1 or 2 (patients)” value ([3]; Total (n = 21)) was 2. For the same substance, the “Hypoalbuminaemia, drug-related, Grade 3 (patients)” value ([3]; Total (n = 21)) was 0, the “Muscle spasms, drug-related, Grade 1 or 2 (patients)” value ([3]; Total (n = 21)) was 1 and the “Muscle spasms, drug-related, Grade 3 (patients)” value ([3]; Total (n = 21)) was 0. The “Mydriasis, drug-related, Grade 1 or 2 (patients)” value ([3]; Total (n = 21)) was 1, the “Mydriasis, drug-related, Grade 3 (patients)” value ([3]; Total (n = 21)) was 0 and the “Nausea, drug-related, Grade 1 or 2 (patients)” value ([3]; Total (n = 21)) was 3. For the same substance, the “Nausea, drug-related, Grade 3 (patients)” value ([3]; Total (n = 21)) was 0, the “Oedema peripheral, drug-related, Grade 1 or 2 (patients)” value ([3]; Total (n = 21)) was 2 and the “Oedema peripheral, drug-related, Grade 3 (patients)” value ([3]; Total (n = 21)) was 0. The “Oral candidiasis, drug-related, Grade 1 or 2 (patients)” value ([3]; Total (n = 21)) was 1, the “Oral candidiasis, drug-related, Grade 3 (patients)” value ([3]; Total (n = 21)) was 0 and the “Paraesthesia oral, drug-related, Grade 1 or 2 (patients)” value ([3]; Total (n = 21)) was 1. For the same substance, the “Paraesthesia oral, drug-related, Grade 3 (patients)” value ([3]; Total (n = 21)) was 0, the “Pyrexia, drug-related, Grade 1 or 2 (patients)” value ([3]; Total (n = 21)) was 0 and the “Rash, drug-related, Grade 1 or 2 (patients)” value ([3]; Total (n = 21)) was 1. The “Rash, drug-related, Grade 3 (patients)” value ([3]; Total (n = 21)) was 0, the “Swelling face, drug-related, Grade 1 or 2 (patients)” value ([3]; Total (n = 21)) was 1 and the “Swelling face, drug-related, Grade 3 (patients)” value ([3]; Total (n = 21)) was 0. For the same substance, the “Vomiting, drug-related, Grade 1 or 2 (patients)” value ([3]; Total (n = 21)) was 3, the “Vomiting, drug-related, Grade 3 (patients)” value ([3]; Total (n = 21)) was 0 and the “Pyrexia, drug-related, Grade 3 (patients)” value ([3]; Total (n = 21), Dose Limiting Toxicity (DLT)) was 1 (4.8%). For the same substance, the “Dose limiting toxicity (DLT)” value ([3]; at 4 mg/kg, doses up to 30 mg/kg) was “A single dose limiting toxicity (DLT) of Grade 3 pyrexia”, the “Grade 3 toxicity of abdominal pain” value ([3]; at 20 mg/kg) was “One” and the “Most commonly reported adverse event” value ([3]; dose-escalation) was “fatigue (Grade 1, 2)”. For the same substance, the “Drug-related Grade 4 toxicities” value ([3]; dose-escalation, 1-30 mg/kg) was “No drug-related Grade 4 toxicities”, the “Safety and tolerability as a single agent” value ([3]; doses up to 30 mg/kg, every 3 weeks) was “safe and generally well tolerated” and the “Terminal Half-Life” value ([4]; Cynomolgus monkey) was 97.2 h. It also gave a V1 ([4]; Cynomolgus monkey) of 0.0338 L/kg, a Vss ([4]; Cynomolgus monkey) of 0.0703 L/kg and a CL ([4]; Cynomolgus monkey (n = 4), linear dose range) of 13.4 mL/day/kg. For the same substance, the “Reduction in circulating IL-8” value ([5]; 24 h following treatment, subjects with baseline IL-8 >50 pg/ml) was greater than 50%, the “Change in serum IL8 following MetMAb infusions” value ([5]; most patients with baseline serum IL8 above normal controls) was “decrease in serum IL8” and the “Change in IL-8 expression post-MetMAb treatment” value ([5]; subjects with less than 50 pg/ml baseline IL-8) was “did not change significantly”. The “Progressive disease (patients)” value ([6]; 21 patients, dose escalation stage) was “Three”, the “Response of patient 11009” value ([6]; gastric adenocarcinoma with metastatic liver lesion, CT Jun. 13, 2008, confirmed July 2008) was “complete response” and the “Complete, objective response (patients)” value ([6]; gastric cancer patient, 20 mg/kg cohort) was “one”. The “Change in serum HGF expression, two patients with highest baseline HGF” value ([7]; 24 h post drug treatment) was “significant decrease; also recorded: significantly decreased”, the “Change in serum HGF expression with MetMAb treatment, in general” value ([7]; Phase I patients) was “little or no increase” and the “Decrease of serum HGF levels post drug treatment, patient 11009” value ([7]; remained low for the duration of the study) was 70%.
